Data reported in patent US20090149339A1.

Target: GST-DLG1 PDZ domain fusion protein (human homolog of Drosophila discs large protein AA275-477; PDZ domains 1-2 of 3) (human) [GST: P08515]
Assay: variant of G assay: 100 µM unlabeled 8-mer with 20 µM biotin-labeled AA2L CLASP-2 peptide on GST-DLG1

Sequence of GST-DLG1 PDZ domain fusion protein (human homolog of Drosophila discs large protein AA275-477; PDZ domains 1-2 of 3) (human) [GST: P08515] (P08515 1-218, tags or fused parts left off): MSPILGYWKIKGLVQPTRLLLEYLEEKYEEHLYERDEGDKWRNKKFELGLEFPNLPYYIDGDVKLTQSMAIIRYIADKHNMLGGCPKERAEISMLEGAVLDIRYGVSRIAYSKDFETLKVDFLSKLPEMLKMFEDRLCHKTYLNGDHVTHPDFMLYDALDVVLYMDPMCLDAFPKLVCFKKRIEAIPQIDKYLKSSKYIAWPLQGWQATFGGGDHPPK

percent inhibition: > 50%
Substance: eight amino acid CLASP-2 peptide MTSSSSVV (unlabeled competitor)
